The numbers were not newly measured in paper PMC4271846, which cites them from elsewhere.

The data set concerns the target tau (Homo sapiens) (UniProt P10636). The experiment in a line: SPR. (In general: In SPR one partner is held on a chip, and binding of the other changes the refractive index at the surface.)

For tau (from UniProt P10636), the Kd is 46 µM.

As usually defined, the Kd is the equilibrium constant for the complex coming apart.
